Data taken from patent US20140274782A1, “AFFINITY REAGENTS AND METHODS FOR DETECTION, PURIFICATION, AND PROTEOMIC ANALYSIS OF METHYLATED PROTEINS” (The Board of Trustees of the Leland Stanford Junior …, priority 2013, published 2014).

T1: G9a and GLP (Homo sapiens, UniProt Q96KQ7+Q9H9B1)
T1 sequence (Q96KQ7 2-1210 limits assumed): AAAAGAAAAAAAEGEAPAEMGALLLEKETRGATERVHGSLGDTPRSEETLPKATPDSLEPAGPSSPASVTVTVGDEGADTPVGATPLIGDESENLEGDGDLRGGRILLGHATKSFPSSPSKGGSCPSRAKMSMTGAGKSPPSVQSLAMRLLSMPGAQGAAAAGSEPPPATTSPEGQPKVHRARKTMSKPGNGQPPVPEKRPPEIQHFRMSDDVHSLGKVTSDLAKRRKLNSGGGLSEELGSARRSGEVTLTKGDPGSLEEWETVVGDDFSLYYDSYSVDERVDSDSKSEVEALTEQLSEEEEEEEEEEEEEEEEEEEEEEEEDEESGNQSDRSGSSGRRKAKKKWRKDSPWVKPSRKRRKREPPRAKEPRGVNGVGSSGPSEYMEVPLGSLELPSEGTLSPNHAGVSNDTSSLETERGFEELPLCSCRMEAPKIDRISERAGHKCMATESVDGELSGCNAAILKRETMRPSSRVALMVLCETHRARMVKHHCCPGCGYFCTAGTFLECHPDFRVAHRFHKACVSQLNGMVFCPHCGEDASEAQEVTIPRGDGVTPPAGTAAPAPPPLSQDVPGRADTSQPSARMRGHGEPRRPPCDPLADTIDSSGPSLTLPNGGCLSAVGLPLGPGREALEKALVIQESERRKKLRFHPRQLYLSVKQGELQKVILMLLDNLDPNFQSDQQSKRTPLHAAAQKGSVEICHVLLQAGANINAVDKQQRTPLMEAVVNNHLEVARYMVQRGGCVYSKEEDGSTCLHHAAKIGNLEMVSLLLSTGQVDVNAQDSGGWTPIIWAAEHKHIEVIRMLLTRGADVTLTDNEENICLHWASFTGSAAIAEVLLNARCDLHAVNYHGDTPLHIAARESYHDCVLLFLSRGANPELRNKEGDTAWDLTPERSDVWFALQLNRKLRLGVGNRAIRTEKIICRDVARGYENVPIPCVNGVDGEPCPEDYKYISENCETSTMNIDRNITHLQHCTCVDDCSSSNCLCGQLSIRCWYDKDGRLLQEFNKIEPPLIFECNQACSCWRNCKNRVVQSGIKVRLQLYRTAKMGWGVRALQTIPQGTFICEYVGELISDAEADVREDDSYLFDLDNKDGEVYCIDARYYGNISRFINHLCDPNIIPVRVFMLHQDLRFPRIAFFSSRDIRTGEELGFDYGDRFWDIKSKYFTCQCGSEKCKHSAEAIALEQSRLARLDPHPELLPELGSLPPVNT
T1 sequence (Q9H9B1 2-1298 limits assumed): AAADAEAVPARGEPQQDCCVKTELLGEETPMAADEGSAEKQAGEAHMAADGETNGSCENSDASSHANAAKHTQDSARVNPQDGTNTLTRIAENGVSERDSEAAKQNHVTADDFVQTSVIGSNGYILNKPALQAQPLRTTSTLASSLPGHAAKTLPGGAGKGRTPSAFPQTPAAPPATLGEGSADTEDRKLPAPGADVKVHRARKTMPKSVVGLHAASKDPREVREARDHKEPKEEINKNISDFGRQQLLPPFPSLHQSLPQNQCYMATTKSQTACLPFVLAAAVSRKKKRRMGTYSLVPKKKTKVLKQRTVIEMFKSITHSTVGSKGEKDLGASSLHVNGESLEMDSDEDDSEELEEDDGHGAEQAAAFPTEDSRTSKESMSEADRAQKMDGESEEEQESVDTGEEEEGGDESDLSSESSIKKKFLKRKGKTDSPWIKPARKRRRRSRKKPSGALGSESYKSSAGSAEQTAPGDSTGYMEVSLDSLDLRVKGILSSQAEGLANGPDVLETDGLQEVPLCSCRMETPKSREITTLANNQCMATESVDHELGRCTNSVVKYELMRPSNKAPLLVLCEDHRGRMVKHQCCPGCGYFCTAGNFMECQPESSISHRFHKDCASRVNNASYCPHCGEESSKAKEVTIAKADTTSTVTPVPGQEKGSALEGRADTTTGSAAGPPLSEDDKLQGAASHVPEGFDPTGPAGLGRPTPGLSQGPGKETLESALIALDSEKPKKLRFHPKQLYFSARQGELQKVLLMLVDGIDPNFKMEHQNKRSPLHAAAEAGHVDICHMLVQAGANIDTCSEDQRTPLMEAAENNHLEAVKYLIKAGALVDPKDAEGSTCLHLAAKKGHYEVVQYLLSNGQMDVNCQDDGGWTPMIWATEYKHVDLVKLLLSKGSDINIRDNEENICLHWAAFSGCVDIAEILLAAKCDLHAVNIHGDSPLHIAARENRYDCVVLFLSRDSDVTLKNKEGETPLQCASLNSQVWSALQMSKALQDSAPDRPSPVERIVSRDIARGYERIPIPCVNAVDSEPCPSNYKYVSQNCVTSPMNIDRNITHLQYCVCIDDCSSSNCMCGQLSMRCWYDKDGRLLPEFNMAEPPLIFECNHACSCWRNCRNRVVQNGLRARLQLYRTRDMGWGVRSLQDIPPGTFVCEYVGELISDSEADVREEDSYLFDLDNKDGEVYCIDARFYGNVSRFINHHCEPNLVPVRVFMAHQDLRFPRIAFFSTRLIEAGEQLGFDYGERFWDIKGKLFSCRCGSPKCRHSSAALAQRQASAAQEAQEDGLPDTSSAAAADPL


Columns and labels:
[1] = molecular target: T1, G9a and GLP; test: Triple SILAC pull-down after UNC0638 treatment of 293T cells, DMSO/UNC0638 ratio of protein captured by 3×MBT; format: cell-based; design: endogenous in cells; host or cells: HEK 293T; settings: for Relative to UNC0638 UNC Heavy / Relative to UNC0638 UNC Light: SILAC ratio DMSO/UNC0638 of protein pulled down with 3xMBT; for Relative to UNC0638 UNC Heavy: UNC0638 in heavy SILAC media; for Relative to UNC0638 UNC Light: UNC0638 in light SILAC media; for Relative to UNC0638 Average: average of UNC Light and UNC Heavy experiments;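 on all read-outs here: mass spectrometry (Q-Exactive) SILAC quantitation, DMSO/UNC0638 ratio computed after subtracting 3×MBTD355N mutant pull-down background, only proteins with at least twofold 3×MBT over mutant signal considered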
[2] = system: 3×MBT domain of L3MBTL1; test: Triple SILAC pull-down, 3xMBT/3xMBTD355N ratio (cytoplasmic, nuclear and chromatin fractions of 293T cells); format: binding, human; settings: SILAC ratio, pull-down 3xMBT vs 3xMBTD355N; for 3xMBT/D355N UNC Heavy: experiment with UNC0638 in heavy SILAC media; for 3xMBT/D355N UNC Light: experiment with UNC0638 in light SILAC media;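 on all read-outs here: proteins quantified with MaxQuant, requiring at least two unique peptides and quantification in both label directions, normalized to the mean of proteins from a digested loading control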

Relative to UNC0638 UNC Heavy [1] [log base 2] | Relative to UNC0638 UNC Light [1] [log base 2] | Relative to UNC0638 Average [1] [log base 2] | Molecule | 3xMBT/D355N UNC Heavy [2] [log base 2] | 3xMBT/D355N UNC Light [2] [log base 2]
−0.17 | 0.61 | 0.22 | HNRNPUL1 (protein, UniProt Q9BUJ2 1-856, looked up) Heterogeneous nuclear …: MDVRRLKVNELREELQRRGLDTRGLKAELAERLQAALEAEEPDDERELDADDEPGRPGHINEEVETEGGSELEGTAQPPPPGLQPHAEPGGYSGPDGHYAMDNITRQNQFYDTQVIKQENESGYERRPLEMEQQQAYRPEMKTEMKQGAPTSFLPPEASQLKPDRQQFQSRKRPYEENRGRGYFEHREDRRGRSPQPPAEEDEDDFDDTLVAIDTYNCDLHFKVARDRSSGYPLTIEGFAYLWSGARASYGVRRGRVCFEMKINEEISVKHLPSTEPDPHVVRIGWSLDSCSTQLGEEPFSYGYGGTGKKSTNSRFENYGDKFAENDVIGCFADFECGNDVELSFTKNGKWMGIAFRIQKEALGGQALYPHVLVKNCAVEFNFGQRAEPYCSVLPGFTFIQHLPLSERIRGTVGPKSKAECEILMMVGLPAAGKTTWAIKHAASNPSKKYNILGTNAIMDKMRVMGLRRQRNYAGRWDVLIQQATQCLNRLIQIAARKKRNYILDQTNVYGSAQRRKMRPFEGFQRKAIVICPTDEDLKDRTIKRTDEEGKDVPDHAVLEMKANFTLPDVGDFLDEVLFIELQREEADKLVRQYNEEGRKAGPPPEKRFDNRGGGGFRGRGGGGGFQRYENRGPPGGNRGGFQNRGGGSGGGGNYRGGFNRSGGGGYSQNRWGNNNRDNNNSNNRGSYNRAPQQQPPPQQPPPPQPPPQQPPPPPSYSPARNPPGASTYNKNSNIPGSSANTSTPTVSSYSPPQPSYSQPPYNQGGYSQGYTAPPPPPPPPPAYNYGSYGGYNPAPYTPPPPPTAQTYPQPSYNQYQQYAQQWNQYYQNQGQWPPYYGNYDYGSYSGNTQGGTSTQ | 2.97 | 3.07
0.37 | 0.07 | 0.22 | ADAR (protein, UniProt P55265 1-1226, looked up) Double-stranded RNA-specific …: MNPRQGYSLSGYYTHPFQGYEHRQLRYQQPGPGSSPSSFLLKQIEFLKGQLPEAPVIGKQTPSLPPSLPGLRPRFPVLLASSTRGRQVDIRGVPRGVHLRSQGLQRGFQHPSPRGRSLPQRGVDCLSSHFQELSIYQDQEQRILKFLEELGEGKATTAHDLSGKLGTPKKEINRVLYSLAKKGKLQKEAGTPPLWKIAVSTQAWNQHSGVVRPDGHSQGAPNSDPSLEPEDRNSTSVSEDLLEPFIAVSAQAWNQHSGVVRPDSHSQGSPNSDPGLEPEDSNSTSALEDPLEFLDMAEIKEKICDYLFNVSDSSALNLAKNIGLTKARDINAVLIDMERQGDVYRQGTTPPIWHLTDKKRERMQIKRNTNSVPETAPAAIPETKRNAEFLTCNIPTSNASNNMVTTEKVENGQEPVIKLENRQEARPEPARLKPPVHYNGPSKAGYVDFENGQWATDDIPDDLNSIRAAPGEFRAIMEMPSFYSHGLPRCSPYKKLTECQLKNPISGLLEYAQFASQTCEFNMIEQSGPPHEPRFKFQVVINGREFPPAEAGSKKVAKQDAAMKAMTILLEEAKAKDSGKSEESSHYSTEKESEKTAESQTPTPSATSFFSGKSPVTTLLECMHKLGNSCEFRLLSKEGPAHEPKFQYCVAVGAQTFPSVSAPSKKVAKQMAAEEAMKALHGEATNSMASDNQPEGMISESLDNLESMMPNKVRKIGELVRYLNTNPVGGLLEYARSHGFAAEFKLVDQSGPPHEPKFVYQAKVGGRWFPAVCAHSKKQGKQEAADAALRVLIGENEKAERMGFTEVTPVTGASLRRTMLLLSRSPEAQPKTLPLTGSTFHDQIAMLSHRCFNTLTNSFQPSLLGRKILAAIIMKKDSEDMGVVVSLGTGNRCVKGDSLSLKGETVNDCHAEIISRRGFIRFLYSELMKYNSQTAKDSIFEPAKGGEKLQIKKTVSFHLYISTAPCGDGALFDKSCSDRAMESTESRHYPVFENPKQGKLRTKVENGEGTIPVESSDIVPTWDGIRLGERLRTMSCSDKILRWNVLGLQGALLTHFLQPIYLKSVTLGYLFSQGHLTRAICCRVTRDGSAFEDGLRHPFIVNHPKVGRVSIYDSKRQSGKTKETSVNWCLADGYDLEILDGTRGTVDGPRNELSRVSKKNIFLLFKKLCSFRYRRDLLRLSYGEAKKAARDYETAKNYFKKGLKDMGYGNWISKPQEEKNFYLCPV | 2.00 | 2.47
0.26 | 0.18 | 0.22 | LIG3 (protein, UniProt P49916 43-1009, looked up) DNA ligase 3: LLHGHPLFLRRKPVLSFQGSHLRSRATYLVFLPGLHVGLCSGPCEMAEQRFCVDYAKRGTAGCKKCKEKIVKGVCRIGKVVPNPFSESGGDMKEWYHIKCMFEKLERARATTKKIEDLTELEGWEELEDNEKEQITQHIADLSSKAAGTPKKKAVVQAKLTTTGQVTSPVKGASFVTSTNPRKFSGFSAKPNNSGEAPSSPTPKRSLSSSKCDPRHKDCLLREFRKLCAMVADNPSYNTKTQIIQDFLRKGSAGDGFHGDVYLTVKLLLPGVIKTVYNLNDKQIVKLFSRIFNCNPDDMARDLEQGDVSETIRVFFEQSKSFPPAAKSLLTIQEVDEFLLRLSKLTKEDEQQQALQDIASRCTANDLKCIIRLIKHDLKMNSGAKHVLDALDPNAYEAFKASRNLQDVVERVLHNAQEVEKEPGQRRALSVQASLMTPVQPMLAEACKSVEYAMKKCPNGMFSEIKYDGERVQVHKNGDHFSYFSRSLKPVLPHKVAHFKDYIPQAFPGGHSMILDSEVLLIDNKTGKPLPFGTLGVHKKAAFQDANVCLFVFDCIYFNDVSLMDRPLCERRKFLHDNMVEIPNRIMFSEMKRVTKALDLADMITRVIQEGLEGLVLKDVKGTYEPGKRHWLKVKKDYLNEGAMADTADLVVLGAFYGQGSKGGMMSIFLMGCYDPGSQKWCTVTKCAGGHDDATLARLQNELDMVKISKDPSKIPSWLKVNKIYYPDFIVPDPKKAAVWEITGAEFSKSEAHTADGISIRFPRCTRIRDDKDWKSATNLPQLKELYQLSKEKADFTVVAGDEGSSTTGGSSEENKGPSGSAVSRKAPSKPSASTKKAEGKLSNSNSKDGNMQTAKPSAMKVGEKLATKSSPVKVGEKRKAADETLCQTKVLLDIFTGVRLYLPPSTPDFSRLRRYFVAFDGDLVQEFDMTSATHVLGSRDKNPAAQQVSPEWIWACIRKRRLVAPC | 2.43 | 2.16
